Common to all, as to test: radiochemical methyl transfer from (3H)SAM, nonlinear regression
What all share (format): biochemical, Gallus gallus

Substrate in data set [1]: C[S+](CC[C@H](N)C(=O)O)C[C@H]1O[C@@H](n2cnc3c(N)ncnc32)[C@H](O)[C@@H]1O
The following applies: 20 mM carnosine, variable (1H+3H)SAM, 1 mM MgCl2, pH 7.5, 37 °C, labelled compound. The text has this:
(§1) radiochemical methyl transfer from (3H)SAM, nonlinear regression on chicken HNMT-like protein (recombinant carnosine N-methyltransferase)

Substrate in data set [2]: NCCC(=O)N[C@@H](Cc1cnc[nH]1)C(=O)O
As to conditions: non-saturating 1 µM SAM, 1 mM MgCl2, pH 7.5, 37 °C.
Source text: as §1

Substrate in data set [3]: C[S+](CC[C@H](N)C(=O)O)C[C@H]1O[C@@H](n2cnc3c(N)ncnc32)[C@H](O)[C@@H]1O
The following applies: 20 mM carnosine, variable (1H+3H)SAM, 1 mM MgCl2, pH 7.5, 37 °C, labelled compound. From the text: (§2) radiochemical methyl transfer from (3H)SAM, nonlinear regression on carnosine N-methyltransferase (native, chicken pectoral muscle)
This is another data set of the same source.

Substrate in data set [4]: NCCC(=O)N[C@@H](Cc1cnc[nH]1)C(=O)O
The following applies: non-saturating 1 µM SAM, 1 mM MgCl2, pH 7.5, 37 °C.
Source text: as §2
The source holds these as a separate data set.

B1: chicken HNMT-like protein (recombinant carnosine N-methyltransferase) (Gallus gallus) (protein)
chain: MEPTPEMKRNRLPSMNFEAEILADPHDNSELYVIPSMRSLTAEEYVEAFQSFLDHSTEHQCMDEFNKEVMPHIMAGLGNGKSTINILGVGSGTGEQDLKMIQILQAAHPGVLINNEIIEPNPQHVAAYKELVNRAPDLQGVSFTWHQLTSSEYEQQVKEKNTHKKFDFIHMIQMLYRVEDIPNTIKFFHSCLNHQGKLLIIILSDSSGWASLWKKYRHCLPSTDSGHYITSDSITAVLRKLGIKYHVYEFPSGWDITECFIEGDPAGGHMMDFLTGTKNFLGTAPAALRSRLQEALCQPECSSRKDGRVIFCNNLSMIVAES
notes: full-length ORF from pectoral muscle cDNA, C-terminal His6 tag (pEF6/Myc-His A), expressed in COS-7, HisTrap purified to homogeneity, monomer about 38 kDa (36 kDa without tag)
Turning to B1, in data set [1], the Km is 0.014 ± 0.001 mM, the Vmax came out at 0.786 µmol/min/mg and the kcat worked out at 0.519 ± 0.013 s⁻¹. Besides, in data set [2], the Km turned out to be 1.628 ± 0.071 mM, the Vmax was 0.0519 µmol/min/mg and the kcat stood at 0.034 ± 0.001 s⁻¹.

B2: carnosine N-methyltransferase (native, chicken pectoral muscle) (Gallus gallus) (protein)
chain: MEPTPEMKRNRLPSMNFEAEILADPHDNSELYVIPSMRSLTAEEYVEAFQSFLDHSTEHQCMDEFNKEVMPHIMAGLGNGKSTINILGVGSGTGEQDLKMIQILQAAHPGVLINNEIIEPNPQHVAAYKELVNRAPDLQGVSFTWHQLTSSEYEQQVKEKNTHKKFDFIHMIQMLYRVEDIPNTIKFFHSCLNHQGKLLIIILSDSSGWASLWKKYRHCLPSTDSGHYITSDSITAVLRKLGIKYHVYEFPSGWDITECFIEGDPAGGHMMDFLTGTKNFLGTAPAALRSRLQEALCQPECSSRKDGRVIFCNNLSMIVAES
notes: about 45 kDa by gel filtration
As for B2, in data set [3], the Km was 0.011 ± 0.001 mM, the maximum rate (Vmax) amounted to 0.153 µmol/min/mg and the kcat came to 0.093 ± 0.002 s⁻¹. Also, in data set [4], the Km was 1.646 ± 0.157 mM, the Vmax came out at 0.0138 µmol/min/mg and the kcat came out at 0.008 s⁻¹.

By Km is commonly meant the substrate concentration at which the rate is half of its maximum. As usually defined, the Vmax is the rate approached at saturating substrate. Broadly, the kcat is the number of substrate molecules converted per active site and unit of time at saturation.

These data come from article PMC3660329, “Molecular Identification of Carnosine N-Methyltransferase as Chicken Histamine N-Methyltransferase-Like Protein (HNMT-Like)” (PLoS ONE, 2013).
